Results from patent US20180085455A1 (ISU ABXIS, published 2018).
Changes are numbered by the printed parent chain. Blank lines part the entries; values can stand above or below the binder they belong to.

Experiments:
ErbB3 on cancer cells = ErbB3 on cancer cells (UniProt P21860 20-1342, limits assumed); experiment: cell-based or functional assay
[1] = target: T1, recombinant human ErbB3 protein (R&D systems) (human, UniProt P21860 20-643); experiment: BLI (Octet QK384), human ErbB3 immobilized on AR2G sensor, IgG at 12.5-50 nM
T1 construct: Bought recombinant protein; also called HER3
Method: After activation of carboxyl groups in 20 mM of 1-ethyl-3-(3-dimethylaminopropyl)carbodiimide hydrochloride (EDC) and 40 mM of N-hydroxysulfosuccinimide (sulfo-NHS) solution on an AR2G sensor (ForteBio), 10 μg/mL of human ErbB3 protein solution diluted with 10 mM of sodium acetate (pH 4.0) (ForteBio) was added to immobilize human ErbB3 protein onto the AR2G sensor. The AR2G sensor to which the human ErbB3 protein was immobilized and was treated with 1 M of ethanolamine (ForteBio) to inactivate the remaining unreacted carboxyl groups.

B1: 472P (antibody, V domains shown)
VH: EVQLLESGGGLVQPGGSLRLSCAASGFTFSDYDMSWVRQAPGKGLEWVSGISYDGGNTYYADSVKGRFTISRDNSKNTLYLQMNSLRAEDTAVYYCARDPSWCLQDLCYYADGMDVWGQGTLVTVSS
VL: QSVLTQPPSASGTPGQRVTISCSGSSSNIGSNSVSWYQQLPGTAPKLLIYADSNRPSGVPDRFSGSKSGTSASLAISGLRSEDEADYYCGSWDYSLSGYVFGGGTKLTVLG
notes: IgG1 (Selexis 085 vector, CHO); also called anti-ErbB3 lead antibody 472P
Inhibition of ErbB3 phosphorylation, IC50 (HRG-stimulated MCF7 cells) (ErbB3 on cancer cells): 1.45 nM
Kd [1]: 0.284 nM
koff [1]: 0.000508 s⁻¹
kon [1]: 1.79e+06 M⁻¹ s⁻¹

B2: 451P (antibody, V domains shown)
VH: EVQLLESGGGLVQPGGSLRLSCAASGFTFSDYDMSWVRQAPGKGLEWVSAIYYDSGSIYYADSAKGRFTISRDNSKNTLYLQMNSLRAEDTAVYYCAKDRLFVSDSTFDYWGQGTLVTVSS
VL: B1 VL with S26P, S31N, S35T, A51Y, N54H, Y94A, S97N
notes: IgG1 (Selexis 085 vector, CHO); also called anti-ErbB3 lead antibody 451P
Kd [1]: 0.0535 nM
koff [1]: 6.33e-05 s⁻¹
kon [1]: 1.18e+06 M⁻¹ s⁻¹

B3: 451M4 (antibody, V domains shown)
VH: B2 VH with D31Y, V103A
VL: B1 VL with S26P, S31N, S35T, A51Y, N54H, Y94A, S97N
notes: IgG1 (Selexis 085 vector, CHO)
Kd [1]: 0.00612 nM
koff [1]: 1.23e-05 s⁻¹
kon [1]: 2.01e+06 M⁻¹ s⁻¹

B5: 451M2 (antibody, V domains shown)
VH: B2 VH with V103A
VL: B1 VL with S26P, S31N, S35T, A51Y, N54H, Y94A, S97N
notes: as for B3
Kd [1]: 0.0126 nM
koff [1]: 1.56e-05 s⁻¹
kon [1]: 1.24e+06 M⁻¹ s⁻¹

B7: 451M5 (antibody, V domains shown)
VH: B2 VH with V103E
VL: B1 VL with S26P, S31N, S35T, A51Y, N54H, Y94A, S97N
notes: as for B3
Kd [1]: 0.0217 nM
koff [1]: 3.29e-05 s⁻¹
kon [1]: 1.52e+06 M⁻¹ s⁻¹

B12: 451M1 (antibody, V domains shown)
VH: B2 VH with V103M
VL: B1 VL with S26P, S31N, S35T, A51Y, N54H, Y94A, S97N
notes: as for B3
Kd [1]: 0.0248 nM
koff [1]: 3.08e-05 s⁻¹
kon [1]: 1.24e+06 M⁻¹ s⁻¹

B13: 472M1 (antibody, V domains shown)
VH: B1 VH with D31W, M34L
VL: B1 VL
notes: as for B3
Inhibition of Akt phosphorylation, IC50 (HRG-stimulated MCF7 cells) (ErbB3 on cancer cells): 0.246 nM
Inhibition of ErbB3 phosphorylation, IC50 (HRG-stimulated MCF7 cells) (ErbB3 on cancer cells): 0.276 nM
Kd [1]: 0.0125 nM
koff [1]: 1.74e-05 s⁻¹
kon [1]: 1.39e+06 M⁻¹ s⁻¹

B14: 472S4 (antibody, V domains shown)
VH: B1 VH with D31W, M34I, S35A
VL: B1 VL
notes: as for B3
Kd [1]: 0.00941 nM
koff [1]: 1.09e-05 s⁻¹
kon [1]: 1.15e+06 M⁻¹ s⁻¹

B15: 442P (antibody, V domains shown)
VH: EVQLLESGGGLVQPGGSLRLSCAASGFTFSDYDMSWVRQAPGKGLEWVSSIYPDSGSTYYADSVQGRFTISRDNSKNTLYLQMNSLRAEDTAVYYCAKDLHMGPEGPFDYWGQGTLVTVSS
VL: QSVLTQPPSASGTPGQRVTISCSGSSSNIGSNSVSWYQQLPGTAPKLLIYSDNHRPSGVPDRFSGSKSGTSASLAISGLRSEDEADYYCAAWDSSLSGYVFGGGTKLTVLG
notes: as for B3
Inhibition of ErbB3 phosphorylation, IC50 (HRG-stimulated MCF7 cells) (ErbB3 on cancer cells): 1.05 nM
Kd [1]: 0.283 nM
koff [1]: 0.000352 s⁻¹
kon [1]: 1.25e+06 M⁻¹ s⁻¹

B20: 442S10 (antibody, V domains shown)
VH: B15 VH with L100R, G103W
VL: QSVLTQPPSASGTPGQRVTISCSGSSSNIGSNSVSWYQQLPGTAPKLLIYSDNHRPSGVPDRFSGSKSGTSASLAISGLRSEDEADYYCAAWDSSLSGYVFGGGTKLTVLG
notes: as for B3
Kd [1]: 0.114 nM
koff [1]: 9.29e-05 s⁻¹
kon [1]: 814000 M⁻¹ s⁻¹

B22: 442S9 (antibody, V domains shown)
VH: B15 VH with L100R, G103W
VL: B1 VL with V34G, S53N, N54H, G90A, S91A, Y94S
notes: as for B3
Kd [1]: 0.0716 nM
koff [1]: 5.87e-05 s⁻¹
kon [1]: 821000 M⁻¹ s⁻¹

B23: 442M7 (antibody, V domains shown)
VH: B15 VH with S50T, Y52E, G66S
VL: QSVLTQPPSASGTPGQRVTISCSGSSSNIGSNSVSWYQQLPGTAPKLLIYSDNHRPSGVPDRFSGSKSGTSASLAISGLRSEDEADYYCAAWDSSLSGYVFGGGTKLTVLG
notes: as for B3
Kd [1]: 0.0291 nM
koff [1]: 4.55e-05 s⁻¹
kon [1]: 1.56e+06 M⁻¹ s⁻¹

B26: 442S5 (antibody, V domains shown)
VH: B15 VH with S50I, Y52E, T58I
VL: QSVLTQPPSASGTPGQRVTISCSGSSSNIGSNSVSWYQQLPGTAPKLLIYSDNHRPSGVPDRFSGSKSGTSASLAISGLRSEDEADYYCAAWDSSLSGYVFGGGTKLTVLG
notes: as for B3
Inhibition of Akt phosphorylation, IC50 (HRG-stimulated MCF7 cells) (ErbB3 on cancer cells): 0.167 nM
Inhibition of ErbB3 phosphorylation, IC50 (HRG-stimulated MCF7 cells) (ErbB3 on cancer cells): 0.0854 nM
Kd [1]: 0.0175 nM
koff [1]: 2.74e-05 s⁻¹
kon [1]: 1.57e+06 M⁻¹ s⁻¹

B27: 442S2 (antibody, V domains shown)
VH: B15 VH with Y59D
VL: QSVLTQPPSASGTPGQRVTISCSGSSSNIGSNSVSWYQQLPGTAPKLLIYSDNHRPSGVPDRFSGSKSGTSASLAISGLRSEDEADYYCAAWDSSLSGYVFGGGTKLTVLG
notes: as for B3
Kd [1]: 0.0711 nM
koff [1]: 8.28e-05 s⁻¹
kon [1]: 1.17e+06 M⁻¹ s⁻¹

B28: 442S4 (antibody, V domains shown)
VH: B15 VH with Y52E, S55F, T58S, Q65R
VL: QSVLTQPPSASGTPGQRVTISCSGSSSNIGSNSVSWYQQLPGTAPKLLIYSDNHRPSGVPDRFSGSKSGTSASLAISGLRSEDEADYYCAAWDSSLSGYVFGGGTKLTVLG
notes: as for B3
Kd [1]: 0.0371 nM
koff [1]: 5.47e-05 s⁻¹
kon [1]: 1.48e+06 M⁻¹ s⁻¹

B30: 442M6 (antibody, V domains shown)
VH: B15 VH with Y52E, Y59D, L100R, G103W
VL: B1 VL with V34G, S53N, N54W, G90A, S91A, Y94S
notes: as for B3
Inhibition of Akt phosphorylation, IC50 (HRG-stimulated MCF7 cells) (ErbB3 on cancer cells): 0.304 nM
Inhibition of ErbB3 phosphorylation, IC50 (HRG-stimulated MCF7 cells) (ErbB3 on cancer cells): 0.271 nM
Kd [1]: 0.0201 nM
koff [1]: 1.95e-05 s⁻¹
kon [1]: 969000 M⁻¹ s⁻¹

These reach a lower Kd [1]. Values come first.

Kd [1]: 0.00492 nM
koff [1]: 6.63e-06 s⁻¹
kon [1]: 1.35e+06 M⁻¹ s⁻¹
B4: 451M7 (antibody, V domains shown)
VH: B2 VH with D31Y, V103E
VL: B1 VL with S26P, S31N, S35T, A51Y, N54H, Y94A, S97N
notes: as for B3

Kd [1]: < 0.001 nM
koff [1]: 3.33e-07 s⁻¹
kon [1]: 649000 M⁻¹ s⁻¹
B6: 472S1 (antibody, V domains shown)
VH: B1 VH with D31W, S35T
VL: B1 VL
notes: as for B3

Kd [1]: 0.00347 nM
koff [1]: 4.17e-06 s⁻¹
kon [1]: 1.2e+06 M⁻¹ s⁻¹
B8: 451M6 (antibody, V domains shown)
VH: B2 VH with D31H, V103E
VL: B1 VL with S26P, S31N, S35T, A51Y, N54H, Y94A, S97N
notes: as for B3

Kd [1]: < 0.001 nM
koff [1]: 2.3e-07 s⁻¹
kon [1]: 1.87e+06 M⁻¹ s⁻¹
B9: 451M3 (antibody, V domains shown)
VH: B2 VH with D31H, V103A
VL: B1 VL with S26P, S31N, S35T, A51Y, N54H, Y94A, S97N
notes: as for B3

Inhibition of Akt phosphorylation, IC50 (HRG-stimulated MCF7 cells) (ErbB3 on cancer cells): 0.195 nM
Inhibition of ErbB3 phosphorylation, IC50 (HRG-stimulated MCF7 cells) (ErbB3 on cancer cells): 0.148 nM
Kd [1]: < 0.001 nM
koff [1]: < 1e-07 s⁻¹
kon [1]: 1.07e+06 M⁻¹ s⁻¹
B10: 472S2 (antibody, V domains shown)
VH: B1 VH with D31W, M34L, S35A
VL: B1 VL
notes: as for B3

Kd [1]: < 0.001 nM
koff [1]: 1.43e-07 s⁻¹
kon [1]: 522000 M⁻¹ s⁻¹
B11: 472S3 (antibody, V domains shown)
VH: B1 VH with D31W
VL: B1 VL
notes: as for B3

Kd [1]: < 0.001 nM
koff [1]: < 1e-07 s⁻¹
kon [1]: 471000 M⁻¹ s⁻¹
B16: 442M10 (antibody, V domains shown)
VH: B15 VH with Y59D, G103W
VL: B1 VL with S53N, N54F, G90A, S91A, Y94S
notes: as for B3

Inhibition of Akt phosphorylation, IC50 (HRG-stimulated MCF7 cells) (ErbB3 on cancer cells): 0.239 nM
Inhibition of ErbB3 phosphorylation, IC50 (HRG-stimulated MCF7 cells) (ErbB3 on cancer cells): 0.222 nM
Kd [1]: < 0.001 nM
koff [1]: 3.94e-07 s⁻¹
kon [1]: 522000 M⁻¹ s⁻¹
B17: 442S1 (antibody, V domains shown)
VH: B15 VH with S50T, Y52D, P53L, T58I
VL: B1 VL with A51S, S53N, N54H, G90Q, S91G, Y94T, Y99H
notes: as for B3

Kd [1]: 0.0034 nM
koff [1]: 2.62e-06 s⁻¹
kon [1]: 771000 M⁻¹ s⁻¹
B18: 442M3 (antibody, V domains shown)
VH: B15 VH with L100R, G103W
VL: B1 VL with V34G, S53N, N54W, G90A, S91A, Y94S
notes: as for B3

Kd [1]: 0.00256 nM
koff [1]: 2.23e-06 s⁻¹
kon [1]: 870000 M⁻¹ s⁻¹
B19: 442M8 (antibody, V domains shown)
VH: B15 VH
VL: B1 VL with A51S, S53N, N54H, G90H, S91A, Y94S, S97Y, G98V, Y99D
notes: as for B3

Kd [1]: < 0.001 nM
koff [1]: < 1e-07 s⁻¹
kon [1]: 573000 M⁻¹ s⁻¹
B21: 442M4 (antibody, V domains shown)
VH: B15 VH with S50T, Y52D, P53L, T58I
VL: B1 VL with A51S, S53N, N54H, G90V, S91G, Y94S, S97Y, Y99H
notes: as for B3

Kd [1]: 0.00543 nM
koff [1]: 8.09e-06 s⁻¹
kon [1]: 1.49e+06 M⁻¹ s⁻¹
B24: 442M11 (antibody, V domains shown)
VH: B15 VH with S50T, Y52E, S55Y, Y59L
VL: B1 VL with A51S, S53N, N54H, G90H, S91A, Y94S, Y99D, V100F
notes: as for B3

Kd [1]: < 0.001 nM
koff [1]: < 1e-07 s⁻¹
kon [1]: 872000 M⁻¹ s⁻¹
B25: 442S6 (antibody, V domains shown)
VH: B15 VH with Y59D, L100R, G103W
VL: B1 VL with V34G, S53N, N54W, G90A, S91A, Y94S
notes: as for B3

Kd [1]: < 0.001 nM
koff [1]: < 1e-07 s⁻¹
kon [1]: 665000 M⁻¹ s⁻¹
B29: 442M5 (antibody, V domains shown)
VH: B15 VH with S50T, Y52D, P53L, T58I
VL: B1 VL with A51S, S53N, N54H, G90H, S91A, Y94S, S97W, Y99D
notes: as for B3
